Key:
[1] = test system: Japanese patients with type 2 diabetes mellitus inadequately controlled on oral antidiabetic drugs; assay: EFC14114: mean change in HbA1c from baseline to Week 26; format: in vivo, human; settings: on-treatment period, mITT population
[2] = test system: Japanese patients with type 2 diabetes mellitus inadequately controlled on oral antidiabetic drugs; assay: EFC14114: mean change in fasting plasma glucose from baseline to Week 26; format: in vivo, human; settings: mITT population, MMRM
[3] = test system: Japanese patients with type 2 diabetes mellitus inadequately controlled on oral antidiabetic drugs; assay: EFC14114: mean change in 2-hour postprandial plasma glucose during a standardized meal test; format: in vivo, human; settings: mITT population, ANCOVA, LOCF
[4] = test system: Japanese patients with type 2 diabetes mellitus inadequately controlled on oral antidiabetic drugs; assay: EFC14114: documented symptomatic hypoglycemia; format: in vivo, human; settings: plasma glucose ≤70 mg/dL [[…]], on-treatment period; for Documented symptomatic hypoglycemia: patients with events, %: Safety population
[5] = test system: Japanese patients with type 2 diabetes mellitus inadequately controlled on oral antidiabetic drugs; assay: EFC14114: treatment-emergent adverse events; settings: Safety population; for Patients with any TEAE, %: overview of adverse event profile
[6] = SGLT2 inhibitor use at screening: No
[7] = SGLT2 inhibitor use at screening: Yes

## Gly(A21)-Arg(B31)-Arg(B32) human insulin [Insulin Glargine]
[1]; [6]
  Mean change in HbA1c from baseline to Week 26, LSMean (SE): −0.83 (0.047) %
[1]; [7]
  Mean change in HbA1c from baseline to Week 26, LSMean (SE): −0.49 (0.091) %
[2]; [6]
  Mean change in fasting plasma glucose from baseline to Week 26, LSMean (SE): −1.46 (0.104) mmol/L
[2]; [7]
  Mean change in fasting plasma glucose from baseline to Week 26, LSMean (SE): −1.01 (0.205) mmol/L
[3]; [6]
  Mean change in 2-hour postprandial plasma glucose during a standardized meal test from baseline to Week 26, LSMean (SE): −1.29 (0.185) mmol/L
[3]; [7]
  Mean change in 2-hour postprandial plasma glucose during a standardized meal test from baseline to Week 26, LSMean (SE): −1.38 (0.363) mmol/L
[4]; [6]
  Documented symptomatic hypoglycemia: Number of events: 62
  Documented symptomatic hypoglycemia: Number of events per patient year: 0.61
  Documented symptomatic hypoglycemia: Number of patients with events per patient year: 0.28
  Documented symptomatic hypoglycemia: patients with events, %: 14.1%
[4]; [7]
  Documented symptomatic hypoglycemia: Number of events: 8
  Documented symptomatic hypoglycemia: Number of events per patient year: 0.29
  Documented symptomatic hypoglycemia: Number of patients with events per patient year: 0.11
  Documented symptomatic hypoglycemia: patients with events, %: 5.4%
[5]; [6]
  Patients with TEAE: Any class, %: (63.4%)
  Patients with TEAE: Back pain (PT), %: (2.9%)
  Patients with TEAE: Constipation (PT), %: (1.5%)
  Patients with TEAE: Dental caries (PT), %: (2.4%)
  Patients with TEAE: Diarrhoea (PT), %: (2.9%)
  Patients with TEAE: Dizziness (PT), %: (3.4%)
  Patients with TEAE: Dyspepsia (PT), %: (0.5%)
  Patients with TEAE: Fatigue (PT), %: (2.0%)
  Patients with TEAE: Gastrointestinal disorders (SOC), %: (15.6%)
  Patients with TEAE: General disorders and administration site conditions (SOC), %: (7.3%)
  Patients with TEAE: Headache (PT), %: (2.0%)
  Patients with TEAE: Hyperhidrosis (PT), %: (2.9%)
  Patients with TEAE: Infections and infestations (SOC), %: (35.6%)
  Patients with TEAE: Influenza (PT), %: (1.5%)
  Patients with TEAE: Metabolism and nutrition disorders (SOC), %: (2.9%)
  Patients with TEAE: Musculoskeletal and connective tissue disorders (SOC), %: (12.2%)
  Patients with TEAE: Nasopharyngitis (PT), %: (25.4%)
  Patients with TEAE: Nausea (PT), %: (1.5%)
  Patients with TEAE: Nervous system disorders (SOC), %: (9.3%)
  Patients with TEAE: Pharyngitis (PT), %: (1.0%)
  Patients with TEAE: Skin and subcutaneous tissue disorders (SOC), %: (9.8%)
  Patients with any TEAE leading to permanent treatment discontinuation, %: 0.5%
  Patients with any serious TEAE, %: 3.4%
  Patients with any TEAE, %: 63.4%
[5]; [7]
  Patients with TEAE: Any class, %: (64.3%)
  Patients with TEAE: Back pain (PT), %: (5.4%)
  Patients with TEAE: Dental caries (PT), %: (1.8%)
  Patients with TEAE: Gastrointestinal disorders (SOC), %: (12.5%)
  Patients with TEAE: General disorders and administration site conditions (SOC), %: (5.4%)
  Patients with TEAE: Headache (PT), %: (5.4%)
  Patients with TEAE: Hyperhidrosis (PT), %: (1.8%)
  Patients with TEAE: Infections and infestations (SOC), %: (33.9%)
  Patients with TEAE: Influenza (PT), %: (1.8%)
  Patients with TEAE: Metabolism and nutrition disorders (SOC), %: (1.8%)
  Patients with TEAE: Musculoskeletal and connective tissue disorders (SOC), %: (12.5%)
  Patients with TEAE: Nasopharyngitis (PT), %: (17.9%)
  Patients with TEAE: Nausea (PT), %: (3.6%)
  Patients with TEAE: Nervous system disorders (SOC), %: (10.7%)
  Patients with TEAE: Pharyngitis (PT), %: (5.4%)
  Patients with TEAE: Skin and subcutaneous tissue disorders (SOC), %: (8.9%)
  Patients with any TEAE leading to permanent treatment discontinuation, %: 1.8%
  Patients with any serious TEAE, %: 1.8%
  Patients with any TEAE, %: 64.3%

— patent publication US20250319163A1, “TREATMENT OF TYPE 2 DIABETES MELLITUS” (SANOFI, priority 2019, published 2025)
